According to patent publication US20240000938A1:

Experiments:
[1] = biological target: streptavidin-PE-HLA-A*02-pMHC or streptavidin-APC-HLA-A*02-pMHC tetramer (human); test: flow cytometry; HLA-A*02 positive donor primary T cells with CAR and A*02 blocker, before B2M knockout
[2] = biological target: streptavidin-PE-HLA-A*02-pMHC or streptavidin-APC-HLA-A*02-pMHC tetramer (human); test: flow cytometry; HLA-A*02 positive donor primary T cells with CAR and A*02 blocker, after B2M knockout with sgRNA B2M-6
[3] = biological target: streptavidin-PE-HLA-A*02-pMHC or streptavidin-APC-HLA-A*02-pMHC tetramer (human); test: flow cytometry; HLA-A*02 positive donor primary T cells with CAR and A*02 blocker, after B2M knockout with sgRNA B2M-3
[4] = biological target: HLA-A*02 on cells (human); test: cell-based or functional assay

% of cells negative for the A*02 blocker probe [1]: > 85%
% of the cell population stained with the A*02 blocker probe [1]: 14.8%
% of the cell population stained with the A*02 blocker probe [2]: 44%
% of the cell population stained with the A*02 blocker probe [3]: 40.7%
inhibition of IFNγ induction in primary T cells (HeLa cells) [4]: > 5 fold
inhibition of IFNγ induction in primary T cells (SiHa cells) [4]: > 10 fold
suppression of pan HLA scFv CAR signal (T2 cells) [4]: < 25 fold
Substance: HLA-A*02 PA2.1 ScFv LIR1 inhibitor (C1765) (from UniProt Q8NHL6 398-650)
